Changes are numbered by the printed parent chain. Names may count otherwise.
T1: AmtB (EcAmtB) (Escherichia coli, UniProt P69681)
T1 construct: AmtB(His)6 from pET22b(+), expressed in E. coli C43, purified, reconstituted into liposomes; homotrimer; 1U7G for the simulations only
T1 sequence (P69681 23-428): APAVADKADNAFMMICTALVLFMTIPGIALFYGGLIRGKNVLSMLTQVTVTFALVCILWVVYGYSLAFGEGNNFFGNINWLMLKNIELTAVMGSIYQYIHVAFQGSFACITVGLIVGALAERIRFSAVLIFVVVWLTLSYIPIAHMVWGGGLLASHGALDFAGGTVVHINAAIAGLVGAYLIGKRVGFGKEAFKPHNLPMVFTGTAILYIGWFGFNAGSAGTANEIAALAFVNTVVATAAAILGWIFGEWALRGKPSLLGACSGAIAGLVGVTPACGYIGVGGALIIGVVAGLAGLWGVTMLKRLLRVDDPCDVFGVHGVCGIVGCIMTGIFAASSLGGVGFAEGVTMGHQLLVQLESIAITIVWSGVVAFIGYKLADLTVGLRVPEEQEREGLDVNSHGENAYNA

B1: AmtB (EcAmtB) (Escherichia coli K-12) (protein)
chain: T1 sequence (P69681 23-428)
notes: AmtB(His)6 from pET22b(+), expressed in E. coli C43, purified, reconstituted into liposomes; homotrimer; 1U7G for the simulations only
B2: AmtB (EcAmtB) (Escherichia coli K-12; H190D) (protein)
chain: T1 sequence (P69681 23-428) with H168D
notes: as for B1
B3: AmtB (EcAmtB) (Escherichia coli K-12; H190E) (protein)
chain: T1 sequence (P69681 23-428) with H168E
notes: as for B1

Legend:
[1] = target: T1, AmtB (EcAmtB); assay: solid supported membrane electrophysiology (SSME), proteoliposomes; assay type: biochemical; settings: read-out: Ammonium; transport; maximum transient current amplitude
Source text: (§1) solid supported membrane electrophysiology (SSME), proteoliposomes on AmtB (EcAmtB)

[2] = substrate: CN; assay: as above; assay type: biochemical, Escherichia coli; settings: transport; maximum transient current amplitude
Source text: as §1

[3] = substrate: N; assay: purified protein; settings: transport; maximum transient current amplitude

| Molecule | Km [1] [mM] | Km [2] [mM] | Km [3] [mM] |
| --- | --- | --- | --- |
| N [ammonium] | 0.8 ± 0.1 | – | – |
| B1 | – | 49.86 ± 4.76 | – |
| B2 | – | 55.09 ± 12.67 | 14.02 ± 4.08 |
| B3 | – | 86.00 ± 9.46 | 12.87 ± 7.79 |

— PMC9040831 (mBio, 2022)
